# Measured values published in publication PMC5747488.
# B1: retinoblastoma protein (pRb), endogenous in human cells (natural protein)
# chain: MPPKTPRKTAATAAAAAAEPPAPPPPPPPEEDPEQDSGPEDLPLVRLEFEETEEPDFTALCQKLKIPDHVRERAWLTWEKVSSVDGVLGGYIQKKKELWGICIFIAAVDLDEMSFTFTELQKNIEISVHKFFNLLKEIDTSTKVDNAMSRLLKKYDVLFALFSKLERTCELIYLTQPSSSISTEINSALVLKVSWITFLLAKGEVLQMEDDLVISFQLMLCVLDYFIKLSPPMLLKEPYKTAVIPINGSPRTPRRGQNRSARIAKQLENDTRIIEVLCKEHECNIDEVKNVYFKNFIPFMNSLGLVTSNGLPEVENLSKRYEEIYLKNKDLDARLFLDHDKTLQTDSIDSFETQRTPRKSNLDEEVNVIPPHTPVRTVMNTIQQLMMILNSASDQPSENLISYFNNCTVNPKESILKRVKDIGYIFKEKFAKAVGQGCVEIGSQRYKLGVRLYYRVMESMLKSEEERLSIQNFSKLLNDNIFHMSLLACALEVVMATYSRSTSQNLDSGTDLSFPWILNVLNLKAFDFYKVIESFIKAEGNLTREMIKHLERCEHRIMESLAWLSDSPLFDLIKQSKDREGPTDHLESACPLNLPLQNNHTAADMYLSPVRSPKKKGSTTRVNSTANAETQATSAFQTQKPLKSTSLSLFYKKVYRLAYLRLNTLCERLLSEHPELEHIIWTLFQHTLQNEYELMRDRHLDQIMMCSMYGICKVKNIDLKFKIIVTAYKDLPHAVQETFKRVLIKEEEYDSIIVFYNSVFMQRLKTNILQYASTRPPTLSPIPHIPRSPYKFPSSPLRIPGGNIYISPLKSPYKISEGLPTPTKMTPRSRILVSIGESFGTSEKFQKINQMVCNSDRVLKRSAEGSNPPKPLKKLRFDIEGSDEADGSKHLPGESKFQQKLAEMTSTRTRMQKQKMNDSMDTSNKEEK
# Legend:
# [1] = molecular target: retinoblastoma protein (pRb), endogenous in human cells (human (endogenous in HEK 293T, HeLa)) (UniProt P06400); experiment: co-IP; HEK 293T cells transfected with pORFV119^Flag, pORFV119^LxGxE-Flag or pORFV113^Flag, harvested 12 h post transfection; reciprocal IP of total protein extracts (anti-Flag, anti-pRb or anti-TRAF2), high stringency buffer with 300 mM NaCl, overnight at 4°C, protein G agarose; Western blot
# [2] = molecular target: retinoblastoma protein (pRb), endogenous in human cells (human (endogenous in HEK 293T, HeLa)) (UniProt P06400); experiment: co-IP; HeLa cells transfected with pORFV119^Flag, harvested 12 h post transfection; reciprocal IP (anti-Flag or anti-pRb), high stringency buffer with 300 mM NaCl; Western blot
# [3] = molecular target: retinoblastoma protein (pRb), endogenous in ovine OFTu cells (ovine (endogenous in OFTu)); experiment: co-IP; OFTu cells infected with Flag-tagged recombinant ORFV (MOI 10), harvested 12 h p.i.; reciprocal IP of total protein extracts (anti-Flag or antibody against the cellular protein), high stringency buffer with 300 mM NaCl, overnight at 4°C, protein G agarose; Western blot
# [4] = molecular target: retinoblastoma protein (pRb), endogenous in ovine OFTu cells (ovine (endogenous in OFTu))
# [5] = molecular target: ORFV119^Flag expressed by revertant virus OV-IA82-RV119^Flag (orf virus (ORFV) strain OV-IA82); experiment: co-IP; OFTu cells infected with Flag-tagged recombinant ORFV (MOI 10), harvested 12 h p.i.; reciprocal IP of total protein extracts (anti-Flag or antibody against the cellular protein), high stringency buffer with 300 mM NaCl, overnight at 4°C, protein G agarose; Western blot
# [6] = molecular target: ORFV119^Flag (ORFV119-3xFlag fusion protein expressed from plasmid pORFV119^Flag) (orf virus (ORFV) strain OV-IA82); experiment: co-IP; HEK 293T cells transfected with pORFV119^Flag, pORFV119^LxGxE-Flag or pORFV113^Flag, harvested 12 h post transfection; reciprocal IP of total protein extracts (anti-Flag, anti-pRb or anti-TRAF2), high stringency buffer with 300 mM NaCl, overnight at 4°C, protein G agarose; Western blot
# [7] = molecular target: ORFV119^Flag (ORFV119-3xFlag fusion protein expressed from plasmid pORFV119^Flag) (orf virus (ORFV) strain OV-IA82); experiment: co-IP; HeLa cells transfected with pORFV119^Flag, harvested 12 h post transfection; reciprocal IP (anti-Flag or anti-pRb), high stringency buffer with 300 mM NaCl; Western blot
molecule,measurement,setting,value
ORFV119^Flag (ORFV119-3xFlag fusion protein expressed from plasmid pORFV119^Flag) (natural protein),percentage co-immunoprecipitated,[1],28.4%
same,percentage co-immunoprecipitated,[2],38.7%
ORFV119^Flag expressed by revertant virus OV-IA82-RV119^Flag (natural protein),percentage co-immunoprecipitated,[3],18.5%
ORFV119^LxGxE-Flag expressed by revertant virus OV-IA82-RV119^LxGxE-Flag (natural protein),"fold increase of phosphorylated IKKα/β (Ser176/180) in OFTu cells infected with OV-IA82-RV119^LxGxE-Flag relative to OV-IA82, Western blot densitometry, 30 min and 1 h p.i.",[4],27.4 fold
same,"fold increase of phosphorylated IκBα (Ser32/36) in OFTu cells infected with OV-IA82-RV119^LxGxE-Flag relative to OV-IA82, Western blot densitometry, 30 min and 1 h p.i.",[4],21.2 fold
same,"fold increase of phosphorylated NF-κB-p65 (Ser536) in OFTu cells infected with OV-IA82-RV119^LxGxE-Flag relative to OV-IA82, Western blot densitometry, 30 min and 1 h p.i.",[4],13.2 fold
"retinoblastoma protein (pRb), endogenous in ovine OFTu cells (natural protein)",percentage co-immunoprecipitated,[5],8.7%
B1,percentage co-immunoprecipitated,[6],16.7%
same,percentage co-immunoprecipitated,[7],21.5%
